Assay results: the Human Domainome abundance scans (Beltran et al. 2025)
± gives the uncertainty stated by the source.

B1: 3'-5' exoribonuclease 1, residues 65 to 114; numbered along this chain, Q8IV48 (parent)
chain: VYKEIAITNGCINRMSKEELRAKLSEFKLETRGVKDVLKKRLKNYYKKQK

Variants of: B1
Assay: abundance fitness (aPCA) (normalised: wild type 0, dead -1); higher = more abundant; growth selection in yeast, the domain comes from the species named
Details: Homo sapiens

Variant	abundance fitness
E30H	-0.689 ± 0.04
E30L	-0.67 ± 0.036
E30R	-0.685 ± 0.036
E30G	-0.562 ± 0.047
E30I	-0.732 ± 0.046
K48M	-0.22 ± 0.057
K48W	-0.393 ± 0.043
K48T	-0.175 ± 0.055
K48Q	-0.211 ± 0.059
K48N	-0.164 ± 0.06
K48D	-0.329 ± 0.059
K48Y	-0.279 ± 0.059
R41M	-0.803 ± 0.062
R41W	-0.975 ± 0.06
R41D	-1.09 ± 0.15
R41H	-1.02 ± 0.12
R41C	-1.01 ± 0.078
R41N	-0.895 ± 0.17
R41T	-0.963 ± 0.067
R41P	-0.803 ± 0.063
S25I	-0.315 ± 0.055
S25Y	-0.105 ± 0.05
S25E	-0.106 ± 0.053
S25H	-0.099 ± 0.059

Variant	abundance fitness
S25L	-0.083 ± 0.04
S25N	-0.038 ± 0.063
S25D	-0.096 ± 0.056
Q49T	-0.064 ± 0.06
Q49C	-0.154 ± 0.05
Q49D	-0.353 ± 0.061
Q49M	-0.04 ± 0.068
Q49G	-0.306 ± 0.035
A22N	-0.027 ± 0.061
A22H	-0.049 ± 0.063
A22I	-0.057 ± 0.069
A22M	-0.047 ± 0.051
A22D	-0.122 ± 0.051
A22P	-0.948 ± 0.079
Y46W	-0.229 ± 0.049
Y46I	0.114 ± 0.053
Y46N	-0.268 ± 0.069
Y46E	-0.703 ± 0.057
Y46C	0.066 ± 0.042
Y46K	-0.32 ± 0.067
Y46M	0.111 ± 0.046
Y46F	0.116 ± 0.06
Y46Q	-0.166 ± 0.066
Y46G	-0.533 ± 0.035

Variant	abundance fitness
T31W	-0.161 ± 0.071
T31G	-0.791 ± 0.056
T31L	-0.639 ± 0.035
T31R	-0.327 ± 0.042
T31I	-0.134 ± 0.035
K23H	-0.154 ± 0.062
K23V	-0.182 ± 0.036
Y45W	-0.051 ± 0.048
Y45G	-0.891 ± 0.045
Y45R	-0.878 ± 0.051
Y45Q	-0.876 ± 0.081
L20K	-0.956 ± 0.085
L20C	-0.879 ± 0.064
L20T	-0.913 ± 0.06
L20G	-0.942 ± 0.043
L20Q	-0.892 ± 0.081
L20R	-0.997 ± 0.052
L20E	-0.78 ± 0.056
L20D	-1 ± 0.089
L20V	-0.568 ± 0.038
R14C	-0.315 ± 0.041
R14W	-0.941 ± 0.053
R14E	-0.359 ± 0.048
R14I	-0.724 ± 0.07

Variant	abundance fitness
R14A	-0.115 ± 0.035
R14M	-0.298 ± 0.05
R14N	-0.151 ± 0.055
R14D	-0.308 ± 0.052
R14G	-0.15 ± 0.035
R14P	-0.908 ± 0.051
D36P	-0.17 ± 0.036
D36V	-0.292 ± 0.035
D36M	-0.27 ± 0.048
D36Y	-0.176 ± 0.034
D36L	-0.201 ± 0.033
D36W	-0.106 ± 0.048
D36S	0.048 ± 0.032
D36I	-0.334 ± 0.037
D36A	-0.024 ± 0.035
N9D	-0.244 ± 0.06
N9Q	-0.174 ± 0.061
N9W	-0.331 ± 0.044
N9C	-0.047 ± 0.041
L24M	-0.507 ± 0.052
L24E	-0.986 ± 0.081
L24S	-0.488 ± 0.044
L24Y	-0.896 ± 0.085
L24R	-0.96 ± 0.043

Variant	abundance fitness
L24D	-1.05 ± 0.13
L24Q	-0.927 ± 0.069
K3L	-0.331 ± 0.042
K3N	0.058 ± 0.07
K3T	-0.081 ± 0.046
K3M	-0.287 ± 0.049
K3S	-0.06 ± 0.039
M15K	-0.326 ± 0.082
M15I	-0.635 ± 0.048
M15R	-0.718 ± 0.081
M15W	-0.83 ± 0.12
M15A	-0.678 ± 0.071
M15G	-0.975 ± 0.12
E4C	-0.161 ± 0.05
E4W	-0.229 ± 0.047
E4D	0.003 ± 0.045
E4L	-0.334 ± 0.041
E4A	-0.113 ± 0.038
E4R	-0.353 ± 0.036
E18K	0.058 ± 0.059
E18D	-0.034 ± 0.047
E18A	0.079 ± 0.039
E18W	-0.131 ± 0.049
E18L	-0.025 ± 0.039

Variant	abundance fitness
E18Q	0.075 ± 0.064
E18V	0.058 ± 0.037
K50V	-0.081 ± 0.23
K50P	-0.201 ± 0.32
K50L	-0.058 ± 0.09
K50M	-0.216 ± 0.094
K50T	-0.179 ± 0.06
K17E	-0.518 ± 0.13
K17D	-0.759 ± 0.12
K17H	-0.591 ± 0.083
K17Y	-0.651 ± 0.087
K17N	-0.378 ± 0.063
K17Q	-0.664 ± 0.13
K17L	-0.592 ± 0.058
K17T	-0.366 ± 0.056
K17S	-0.34 ± 0.051
N44V	-0.318 ± 0.039
N44G	-0.158 ± 0.04
N44F	-0.306 ± 0.066
N44M	-0.164 ± 0.048
N44L	-0.168 ± 0.036
N44E	-0.193 ± 0.053
C11W	-0.147 ± 0.053
C11Q	0.046 ± 0.054

Variant	abundance fitness
C11V	0.01 ± 0.034
C11L	-0.053 ± 0.037
C11F	-0.104 ± 0.044
C11N	-0.04 ± 0.05
K28E	-0.178 ± 0.057
K28R	-0.061 ± 0.036
K28T	-0.338 ± 0.06
E19A	-0.147 ± 0.047
E19R	-0.438 ± 0.042
E19F	-0.784 ± 0.075
E19G	-0.375 ± 0.04
E19P	-1.01 ± 0.081
E19D	-0.107 ± 0.058
E19Q	0.007 ± 0.044
L42D	-0.961 ± 0.083
L42Y	-0.969 ± 0.092
L42M	-0.611 ± 0.064
L42A	-0.918 ± 0.053
L42V	-0.754 ± 0.038
L29T	-0.884 ± 0.048
L29K	-0.666 ± 0.054
L29Q	-0.196 ± 0.05
L29F	-0.688 ± 0.04
